The labels stand for the following.
T1: HDP1 homeodomain-like (Plasmodium falciparum, UniProt Q8IKH4 2990-3078)
T1 sequence: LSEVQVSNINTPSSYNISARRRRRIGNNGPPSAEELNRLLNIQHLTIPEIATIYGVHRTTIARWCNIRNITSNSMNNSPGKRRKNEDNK

B1: GTGCAC_site9698 (dsDNA)
DNA 1: GACTTTTCATTTATAGTGCAAGTTTTTTTTTTTTTT
DNA 2: AAAAAAAAAAAAAACTTGCACTATAAATGAAAAGTC
B2: GTGCAC_site10156 (dsDNA)
DNA 1: ACCATATAAAGTTAGGTGCATTTGTATGTATCTTAC
DNA 2: GTAAGATACATACAAATGCACCTAACTTTATATGGT
B3: GTGCAC_site10533 (dsDNA)
DNA 1: CGTAAATTTTTCTAAGTGCATGTTAATTTTTCAATT
DNA 2: AATTGAAAAATTAACATGCACTTAGAAAAATTTACG
B4: GTGCAC_site10319 (dsDNA)
DNA 1: TCATTTTAAATATGTGTGCACGTTATAATTTACACA
DNA 2: TGTGTAAATTATAACGTGCACACATATTTAAAATGA
B5: GTGCAC_site9715 (dsDNA)
DNA 1: TTTTTTAAATTGGTAGTGCAATATGATTGAACAAAA
DNA 2: TTTTGTTCAATCATATTGCACTACCAATTTAAAAAA
B6: GTGCAC_site10461 (dsDNA)
DNA 1: TTTATACATACATTCGTGCACATACGTATAACATAT
DNA 2: ATATGTTATACGTATGTGCACGAATGTATGTATAAA
B7: GTGCAC_site10413 (dsDNA)
DNA 1: AATAAATTCATGATAGTGCAAAAATTATTTTTGTTA
DNA 2: TAACAAAAATAATTTTTGCACTATCATGAATTTATT
B8: GTGCAC_site9469 (dsDNA)
DNA 1: ACAAAAAAAAACGTGGTGCATTAATAATATTGTATA
DNA 2: TATACAATATTATTAATGCACCACGTTTTTTTTTGT
B9: GTGCAC_site9657 (dsDNA)
DNA 1: CATAATTTAAAAAAGGTGCAAAATGGATAATATATA
DNA 2: TATATATTATCCATTTTGCACCTTTTTTAAATTATG
B10: GTGCAC_site10244 (dsDNA)
DNA 1: ATCCGCTGCCTTTTGGTGCAGAACATAATCATGTAA
DNA 2: TTACATGATTATGTTCTGCACCAAAAGGCAGCGGAT
B11: GTGCAC_site10539 (dsDNA)
DNA 1: ATATATTTTTATATAGTGCAAGTAATAAAAAGGAAT
DNA 2: ATTCCTTTTTATTACTTGCACTATATAAAAATATAT
B12: GTGCAC_site9948 (dsDNA)
DNA 1: CTTAAATTAATTTGGGTGCATATATTTGTACACATT
DNA 2: AATGTGTACAAATATATGCACCCAAATTAATTTAAG
B13: GTGCAC_site10546 (dsDNA)
DNA 1: ATGAAATATTTATTTGTGCACTTAATTTGTTGGAAA
DNA 2: TTTCCAACAAATTAAGTGCACAAATAAATATTTCAT
B14: GTGCAC_site10384 (dsDNA)
DNA 1: TTTTCTTGGTTCAGTGTGCACTTATATATATATATA
DNA 2: TATATATATATATAAGTGCACACTGAACCAAGAAAA
B15: GTGCAC_site10652 (dsDNA)
DNA 1: ATATATATATTTTGGTAGCACCTCCTTTTTTTTTTT
DNA 2: AAAAAAAAAAAGGAGGTGCTACCAAAATATATATAT
B16: GTGCAC_site9634 (dsDNA)
DNA 1: AAATTGAGACAACAGGTGCATATAAATATACAGTGT
DNA 2: ACACTGTATATTTATATGCACCTGTTGTCTCAATTT
B17: GTGCAC_site9631 (dsDNA)
DNA 1: AAAAATAATCATTAGGTGCAAAAAATATATATATAT
DNA 2: ATATATATATATTTTTTGCACCTAATGATTATTTTT
B18: GTGCAC_site9865 (dsDNA)
DNA 1: ATGTTGCTCATATGAGTGCACGTTTCATTTCAGTTT
DNA 2: AAACTGAAATGAAACGTGCACTCATATGAGCAACAT
B19: GTGCAC_site9450 (dsDNA)
DNA 1: ATAACAAAATGAAGAGTGCATTACCAAGTGGGTAAA
DNA 2: TTTACCCACTTGGTAATGCACTCTTCATTTTGTTAT
B20: GTGCAC_site9492 (dsDNA)
DNA 1: GTCAACAAGAATTAAGTGCATAATTTTTTATTAAAT
DNA 2: ATTTAATAAAAAATTATGCACTTAATTCTTGTTGAC
B21: GTGCAC_site10425 (dsDNA)
DNA 1: CATGAGGTATAAAAGGTGCAAATTAATGAGAACATT
DNA 2: AATGTTCTCATTAATTTGCACCTTTTATACCTCATG
B22: GTGCAC_site10269 (dsDNA)
DNA 1: TGTGTATATATGCTGGTGCAACTTTAAAAAATAATC
DNA 2: GATTATTTTTTAAAGTTGCACCAGCATATATACACA
B23: GTGCAC_site10061 (dsDNA)
DNA 1: AAAAAAAAAAAAAGAGTGCAAACTATGATAATTTAA
DNA 2: TTAAATTATCATAGTTTGCACTCTTTTTTTTTTTTT
B24: GTGCAC_site9435 (dsDNA)
DNA 1: ATATTTTGTTTTATAGTGCACATGGGCATATATTAA
DNA 2: TTAATATATGCCCATGTGCACTATAAAACAAAATAT
B25: GTGCAC_site9397 (dsDNA)
DNA 1: TGTGTTAGCAAAAAAGTGCACAGGGAAAAAAAAATA
DNA 2: TATTTTTTTTTCCCTGTGCACTTTTTTGCTAACACA
B26: GTGCAC_site10676 (dsDNA)
DNA 1: TTTTGTTATTTTTTAGTGCATATAAAGGTTGTTAAG
DNA 2: CTTAACAACCTTTATATGCACTAAAAAATAACAAAA
B27: GTGCAC_site10728 (dsDNA)
DNA 1: TCATACATGGTGTGTTTGCACTTGACCTATATTCAT
DNA 2: ATGAATATAGGTCAAGTGCAAACACACCATGTATGA
B28: GTGCAC_site9886 (dsDNA)
DNA 1: ATTTATTTATATTTAGTGCAATACTATTTTTAAATA
DNA 2: TATTTAAAAATAGTATTGCACTAAATATAAATAAAT
B29: GTGCAC_site10762 (dsDNA)
DNA 1: TGTAAAATATAAAAAGTGCATTTCTTTTAATATGAT
DNA 2: ATCATATTAAAAGAAATGCACTTTTTATATTTTACA
B30: GTGCAC_site10465 (dsDNA)
DNA 1: TGGTATGCAATATTGGTGCGTATATATTTTAAAGGG
DNA 2: CCCTTTAAAATATATACGCACCAATATTGCATACCA
B31: GTGCAC_site10120 (dsDNA)
DNA 1: AAAAACAAACTGTGCATGCACCAAAAAAAAAAAAAA
DNA 2: TTTTTTTTTTTTTTGGTGCATGCACAGTTTGTTTTT
B32: GTGCAC_site9646 (dsDNA)
DNA 1: TGTATATATATCTCAGTGCATTGCAAATTAAAAATT
DNA 2: AATTTTTAATTTGCAATGCACTGAGATATATATACA
B33: GTGCAC_site10509 (dsDNA)
DNA 1: ACAACAATTCACTTGATGCACTAACCAAAAAAATAA
DNA 2: TTATTTTTTTGGTTAGTGCATCAAGTGAATTGTTGT
B34: GTGCAC_site10212 (dsDNA)
DNA 1: TATATATATATATATGTGCACATATATATGATATTA
DNA 2: TAATATCATATATATGTGCACATATATATATATATA
B35: GTGCAC_site10318 (dsDNA)
DNA 1: ATATATATATATATAGTGCAAATATCTTCTTTATAA
DNA 2: TTATAAAGAAGATATTTGCACTATATATATATATAT
B36: GTGCAC_site10078 (dsDNA)
DNA 1: AATTATATATAAAAAGTGCAAAACGATAATTCATCA
DNA 2: TGATGAATTATCGTTTTGCACTTTTTATATATAATT
B37: GTGCAC_site9778 (dsDNA)
DNA 1: CACCCTTTACACAAGGTGCATACTTTATTATATTTT
DNA 2: AAAATATAATAAAGTATGCACCTTGTGTAAAGGGTG
B38: GTGCAC_site10231 (dsDNA)
DNA 1: TTCCAAGAAATAATAGTGCATTATTCATTTTAATAA
DNA 2: TTATTAAAATGAATAATGCACTATTATTTCTTGGAA
B39: GTGCAC_site10737 (dsDNA)
DNA 1: TAATTTCTTTAGGGGGTGCTTTTATAGTTTTTATTA
DNA 2: TAATAAAAACTATAAAAGCACCCCCTAAAGAAATTA
B40: GTGCAC_site10104 (dsDNA)
DNA 1: CTTATAAGAATACTAGTGCACATAATTTAACGAAAA
DNA 2: TTTTCGTTAAATTATGTGCACTAGTATTCTTATAAG
B41: GTGCAC_site10399 (dsDNA)
DNA 1: CATATTATTATTTTGGTGCATACTTATATATATTTT
DNA 2: AAAATATATATAAGTATGCACCAAAATAATAATATG

The target of this series is T1, HDP1 homeodomain-like. Kind of series: gcPBM; about 25 ug protein; PBS, 1% milk, 0.2 mg/ml BSA, salmon testes DNA, 0.03% Triton X-100. The following applies: tags: N-terminal GST (pGEX-4T-1), kept; chain copies: 2; label: surface-attached array probe.
For the molecule B1, the binding signal is 7.84 ln median PBM intensity, better of two orientations.

Regarding B2, the binding signal is 9.55 ln median PBM intensity, better of two orientations.

B3: the binding signal is 7.89 ln median PBM intensity, better of two orientations.

In the case of B4, the binding signal is 9.66 ln median PBM intensity, better of two orientations.

Take B5: the binding signal was 9.52 ln median PBM intensity, better of two orientations.

In the case of B6, the binding signal is 10.1 ln median PBM intensity, better of two orientations.

Consider B7, for which the binding signal is 8.5 ln median PBM intensity, better of two orientations.

In the case of B8, the binding signal was 9.75 ln median PBM intensity, better of two orientations.

In the case of B9, the binding signal was 10.1 ln median PBM intensity, better of two orientations.

On to B10, for which the binding signal is 8.03 ln median PBM intensity, better of two orientations.

Turning to B11, the binding signal was 8.63 ln median PBM intensity, better of two orientations.

With B12, the binding signal was 9.77 ln median PBM intensity, better of two orientations.

As for B13, the binding signal was 9.86 ln median PBM intensity, better of two orientations.

As to B14, the binding signal was 10.2 ln median PBM intensity, better of two orientations.

For the molecule B15, the binding signal is 8.08 ln median PBM intensity, better of two orientations.

Take B16: the binding signal was 9.49 ln median PBM intensity, better of two orientations.

On to B17, for which the binding signal was 9.83 ln median PBM intensity, better of two orientations.

Turning to B18, the binding signal was 8.54 ln median PBM intensity, better of two orientations.

Consider B19, for which the binding signal was 7.77 ln median PBM intensity, better of two orientations.

Consider B20, for which the binding signal was 9.67 ln median PBM intensity, better of two orientations.

Take B21: the binding signal was 9.91 ln median PBM intensity, better of two orientations.

Consider B22, for which the binding signal was 9.48 ln median PBM intensity, better of two orientations.

With B23, the binding signal is 8.19 ln median PBM intensity, better of two orientations.

In the case of B24, the binding signal was 9.71 ln median PBM intensity, better of two orientations.

For B25, the binding signal is 9.59 ln median PBM intensity, better of two orientations.

As to B26, the binding signal is 9.65 ln median PBM intensity, better of two orientations.

Take B27: the binding signal is 8.23 ln median PBM intensity, better of two orientations.

As for B28, the binding signal was 9.95 ln median PBM intensity, better of two orientations.

Take B29: the binding signal was 7.62 ln median PBM intensity, better of two orientations.

Take B30: the binding signal was 8.58 ln median PBM intensity, better of two orientations.

On to B31, for which the binding signal is 10.3 ln median PBM intensity, better of two orientations.

Regarding B32, the binding signal is 9.68 ln median PBM intensity, better of two orientations.

On to B33, for which the binding signal is 7.97 ln median PBM intensity, better of two orientations.

Regarding B34, the binding signal is 10.3 ln median PBM intensity, better of two orientations.

For B35, the binding signal is 9.8 ln median PBM intensity, better of two orientations.

For the molecule B36, the binding signal is 8.44 ln median PBM intensity, better of two orientations.

Turning to B37, the binding signal is 8.31 ln median PBM intensity, better of two orientations.

For the molecule B38, the binding signal was 9.61 ln median PBM intensity, better of two orientations.

On to B39, for which the binding signal is 8.27 ln median PBM intensity, better of two orientations.

In the case of B40, the binding signal is 10 ln median PBM intensity, better of two orientations.

With B41, the binding signal is 9.47 ln median PBM intensity, better of two orientations.

The values above are taken from paper PMC11417369, “DNA sequence and chromatin differentiate sequence-specific transcription factor binding in the human malaria parasite Plasmodium falciparum”.
